Results on four molecules are retold here after article PMC8828467, “Activation mechanism of PINK1” (Nature, 2021).

Data set [1] has as its target T1, Ser202-phosphorylated PhPINK1 (amino acids 115–575), monomeric (Pediculus humanus corporis, UniProt E0W1I1 115-575, phosphoserine at 202).
T1 construct: PINK1 of Pediculus humanus corporis, amino acids 115–575, wild type, autophosphorylated at Ser202 after dephosphorylation; For the analytical SEC the monomer fractions of the SEC run were pooled; also called phospho-PhPINK1; monomeric phosphorylated PhPINK1; not shown: GST, N-terminal, cleaved
T1 sequence (looked up): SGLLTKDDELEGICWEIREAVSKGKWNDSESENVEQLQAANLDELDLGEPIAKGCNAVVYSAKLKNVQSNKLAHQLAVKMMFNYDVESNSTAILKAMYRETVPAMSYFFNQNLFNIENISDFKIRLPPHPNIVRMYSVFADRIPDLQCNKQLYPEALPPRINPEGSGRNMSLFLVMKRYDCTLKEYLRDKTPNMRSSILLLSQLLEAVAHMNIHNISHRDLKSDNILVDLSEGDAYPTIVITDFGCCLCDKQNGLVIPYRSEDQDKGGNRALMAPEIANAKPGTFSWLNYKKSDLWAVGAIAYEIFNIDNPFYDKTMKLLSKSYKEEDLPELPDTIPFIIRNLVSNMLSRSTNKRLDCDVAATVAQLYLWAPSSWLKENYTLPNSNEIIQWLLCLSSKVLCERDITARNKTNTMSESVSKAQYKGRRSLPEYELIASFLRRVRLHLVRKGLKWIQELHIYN
The experiment in a line: SEC + other: Phos-tag SDS–PAGE; Phos-tag analysis of the oligomer species from the analytical SEC of the mixed proteins. As to conditions: both partners purified.

Data set [2] concerns the molecule itself. The data set is described as follows: SEC-MALS; Superdex 200 Increase 10/300 GL; 25 mM Tris (pH 8.5), 150 mM NaCl, 5% (v/v) glycerol, 2 mM TCEP; 100 µl of purified protein at 1 mg ml^−1, 0.5 ml min^−1.
Data set [3] concerns the molecule itself. The data set is described as follows: cross-linking; in vitro disulphide linkage: 1.5 μM PhPINK1 or TcPINK1 with 2 mM H2O2 in 25 mM Tris (pH 7.4), 150 mM NaCl, 22 °C, time course; non-reducing gel, Coomassie.

B1: PhPINK1(D334A) (amino acids 115–575), unphosphorylated (enzyme)
chain: SGLLTKDDELEGICWEIREAVSKGKWNDSESENVEQLQAANLDELDLGEPIAKGCNAVVYSAKLKNVQSNKLAHQLAVKMMFNYDVESNSTAILKAMYRETVPAMSYFFNQNLFNIENISDFKIRLPPHPNIVRMYSVFADRIPDLQCNKQLYPEALPPRINPEGSGRNMSLFLVMKRYDCTLKEYLRDKTPNMRSSILLLSQLLEAVAHMNIHNISHRALKSDNILVDLSEGDAYPTIVITDFGCCLCDKQNGLVIPYRSEDQDKGGNRALMAPEIANAKPGTFSWLNYKKSDLWAVGAIAYEIFNIDNPFYDKTMKLLSKSYKEEDLPELPDTIPFIIRNLVSNMLSRSTNKRLDCDVAATVAQLYLWAPSSWLKENYTLPNSNEIIQWLLCLSSKVLCERDITARNKTNTMSESVSKAQYKGRRSLPEYELIASFLRRVRLHLVRKGLKWIQELHIYN
notes: pOPINK vector, GST tag removed with 3C PreScission protease; also called unphosphorylated PhPINK1(D334A); monomeric PhPINK1(D334A); source: E. coli Rosetta2 (DE3) pLacI, purified (Glutathione Sepharose, 3C cleavage, SEC); not shown: GST, N-terminal, cleaved
For the molecule B1, in data set [1], the stoichiometry N (usually the number of molecules, sites or subunits per partner or assembly) was determined as 1.

B2: PhPINK1(D357A) (amino acids 115–575) (enzyme)
chain: SGLLTKDDELEGICWEIREAVSKGKWNDSESENVEQLQAANLDELDLGEPIAKGCNAVVYSAKLKNVQSNKLAHQLAVKMMFNYDVESNSTAILKAMYRETVPAMSYFFNQNLFNIENISDFKIRLPPHPNIVRMYSVFADRIPDLQCNKQLYPEALPPRINPEGSGRNMSLFLVMKRYDCTLKEYLRDKTPNMRSSILLLSQLLEAVAHMNIHNISHRDLKSDNILVDLSEGDAYPTIVITAFGCCLCDKQNGLVIPYRSEDQDKGGNRALMAPEIANAKPGTFSWLNYKKSDLWAVGAIAYEIFNIDNPFYDKTMKLLSKSYKEEDLPELPDTIPFIIRNLVSNMLSRSTNKRLDCDVAATVAQLYLWAPSSWLKENYTLPNSNEIIQWLLCLSSKVLCERDITARNKTNTMSESVSKAQYKGRRSLPEYELIASFLRRVRLHLVRKGLKWIQELHIYN
notes: Forms a dodecamer (two rings of three dimers); also called oligomeric PhPINK1(D357A); PhPINK1(D357A) dodecamer; source: E. coli Rosetta2 (DE3) pLacI, purified (Glutathione Sepharose, 3C cleavage, Mono Q for EM, SEC); not shown: GST, N-terminal, cleaved
Consider B2, for which the “stoichiometry N” value in data set [2] came out at 2.

B3: TcPINK1(T172C/D359A) (enzyme, Tribolium castaneum, UniProt D6WMX4 117-570, looked up)
chain: TGILTKEEELEGVCWEIREAISKIKWQYYDIDESRFESNPITLNDLSLGKPIAKGCNGVVYSAKVKDDETDDNKYPFALKMMFNYDIQSNSMEILKAMYRETVPARMYYSNHDLNNWEIELANRRKHLPPHPNIVAIFSVFTDLIQELEGSKDLYPAALPPRLHPEGEGRNMSLFLLMKRYDCNLQSFLSTAPSTRTSLLLLAQLLEGVAHMTAHGIAHRDLKSDNLLLDTSEPESPILVISAFGCCLADKTNGLSLPYTSYEMDKGGNTALMAPEIICQKPGTFSVLNYSKADLWAVGAIAYEIFNCHNPFYGPSRLKNFNYKEGDLPKLPDEVPTVIQALVANLLKRNPNKRLDPEVAANVCQLFLWAPSTWLKPGLKVPTSGEILQWLLSLTTKVLCEGKINNKSFGEKFTRNWRRTYPEYLLISSFLCRAKLANVRNALHWIQENLPELD
notes: PINK1 of Tribolium castaneum with T172C and D359A; also called TcPINK1 with an equivalent T172C mutation; source: E. coli Rosetta2 (DE3) pLacI, purified (Glutathione Sepharose, 3C cleavage, SEC); not shown: GST, N-terminal, cleaved
On to B3, for which the binding result in data set [3] is “binds”.

B4: PhPINK1 (amino acids 143–575) (domain or fragment, Pediculus humanus corporis, UniProt E0W1I1 143-575, looked up)
chain: SESENVEQLQAANLDELDLGEPIAKGCNAVVYSAKLKNVQSNKLAHQLAVKMMFNYDVESNSTAILKAMYRETVPAMSYFFNQNLFNIENISDFKIRLPPHPNIVRMYSVFADRIPDLQCNKQLYPEALPPRINPEGSGRNMSLFLVMKRYDCTLKEYLRDKTPNMRSSILLLSQLLEAVAHMNIHNISHRDLKSDNILVDLSEGDAYPTIVITDFGCCLCDKQNGLVIPYRSEDQDKGGNRALMAPEIANAKPGTFSWLNYKKSDLWAVGAIAYEIFNIDNPFYDKTMKLLSKSYKEEDLPELPDTIPFIIRNLVSNMLSRSTNKRLDCDVAATVAQLYLWAPSSWLKENYTLPNSNEIIQWLLCLSSKVLCERDITARNKTNTMSESVSKAQYKGRRSLPEYELIASFLRRVRLHLVRKGLKWIQELHIYN
notes: PINK1 of Pediculus humanus corporis, amino acids 143–575, lacking the N-helix; also called PhPINK1 without the N-helix; the shorter PhPINK1 construct
For B4, in data set [2], the “stoichiometry N” value was 2.
